Numbering of substitutions follows the chain as printed. Read-outs that look alike come from different tables or passages of the source.
Legend:
S protein of MERS-CoV = S protein of MERS-CoV (MERS-CoV, strain not named; EMC/2012 …, UniProt K0BRG7)
[1] = molecular target: T1, mouse Fc-tagged RBD of MERS-CoV (MERS-CoV, strain not named; EMC/2012 …, UniProt K0BRG7)
[2] = molecular target: mouse Fc-tagged RBD of Bt-CoV-HKU4 (Bat coronavirus HKU4 (BtCoV/HKU4/2004), UniProt A3EX94); test: immunostaining of cells or tissue
N protein of MERS-CoV = N protein of MERS-CoV (MERS-CoV, strain , UniProt K9N4V7); test: immunostaining of cells or tissue
[3] = molecular target: mouse Fc-tagged RBD of Bt-CoV-HKU5 (Bat coronavirus HKU5 (BtCoV/HKU5/2004), UniProt A3EXD0); test: immunostaining of cells or tissue
[4] = molecular target: T1, mouse Fc-tagged RBD of MERS-CoV; test: immunostaining of cells or tissue
[5] = molecular target: receptor-binding domain (RBD) of the SARS-CoV S protein, amino acids 318-510, histidine-tagged (SARS-CoV, strain , UniProt P59594); test: ELISA

B1: 43A9 (antibody, V domains shown)
VH: QVQLQQSGAELARPGASVKLSCNASGYIFSSYWMQWVKQRPGQGLEWIGAIYPGDGDTRYSQKFRGKATVTADKSSSTAYMQLSSLASADSAVYYCARFGDGYYYPMDYWGQGTSVTVSS
VL: DIVMTQAAPSVPVTPGESVSISCRSSKSLLHSNGNTYLYWFLQRPGQSPQLLIYRMSNLASGVPDRFSGSGSGTAFTLRISRVEAEDVGVYYCMQHLEYPFTFGSGTKLEIK
B1: binds (S protein of MERS-CoV); binds [1].

B2: MAb 45E11 (antibody, V domains shown)
VH: QVQLKESGPGLVAPSQSLSITCTVSGFSLTGFGVNWVRQPPGKGLEWLGMIWGDGGTDYNSTLKSRLSFSKDNSKSQVFLKMNSLQTDDTARYYCARAAGTGDYFDYWGQGTTLTVSS
VL: DIQMTQSPASLSASVGETVTITCRASENIYSYLAWYQQKQGKSPQLLVYNAKTLAEGVPSRFSGSGSGTQFSLKINSLQPEDFGSYYCQHHYGTPWTFGGGTKLEIK
B2: no binding [2]; no binding (N protein of MERS-CoV); no binding [3]. B2: binds [4]; no binding [5].

B3: MAb 45C2 (antibody, V domains shown)
VH: B2 VH with F32Y, T62A, F69I, S70T, Q86L, T87P
VL: B2 VL with Y30D, S63G, N76Y, S85N
B3: no binding [2]; no binding (N protein of MERS-CoV); no binding [3]. B3: binds [4]; no binding [5].

From article PMC7113858 (Journal of Virological Methods, 2017)
